T1: H16_B1672 (HTH XRE-family like protein) (Ralstonia eutropha H16, UniProt Q0K0L7 1-128)
T1 sequence: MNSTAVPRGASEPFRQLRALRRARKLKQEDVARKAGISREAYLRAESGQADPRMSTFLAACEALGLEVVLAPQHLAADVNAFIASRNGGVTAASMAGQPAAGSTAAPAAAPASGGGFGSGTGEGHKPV

T2: H16_B0227 (H-NS-like DNA-binding protein) (Ralstonia eutropha H16) (UniProt Q0K4P6)
T2 sequence: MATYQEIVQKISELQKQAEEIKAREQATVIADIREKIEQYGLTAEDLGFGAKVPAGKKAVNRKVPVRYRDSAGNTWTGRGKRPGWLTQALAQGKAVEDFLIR

T3: H16_B1672 (HTH XRE-family like protein) (Ralstonia eutropha H16) (UniProt Q0K0L7)
T3 sequence: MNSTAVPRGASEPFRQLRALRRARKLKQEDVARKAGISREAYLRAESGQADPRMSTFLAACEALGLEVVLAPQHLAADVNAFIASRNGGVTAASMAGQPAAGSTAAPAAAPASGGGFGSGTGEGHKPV

T4: PpiB (peptidyl-prolyl cis-trans isomerase) (Ralstonia eutropha H16?) (UniProt Q0KCB2)
T4 sequence: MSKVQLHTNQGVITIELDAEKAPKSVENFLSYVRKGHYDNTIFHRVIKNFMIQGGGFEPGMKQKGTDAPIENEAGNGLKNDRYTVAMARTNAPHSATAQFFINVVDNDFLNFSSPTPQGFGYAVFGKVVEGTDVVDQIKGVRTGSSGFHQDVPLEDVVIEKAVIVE

B1: PphaP1 100-mer (MG0235/MG0236), EMSA (dsDNA)
DNA 1: TGGCGTCACAGCCGCTCCCGTGTATCGCCAGCAACGTTGTTTGTGCATTGCACAAAATCCACTTGACATTGGATCTGGCGCCCCTAAAATAGGAATTGTT
DNA 2: AACAATTCCTATTTTAGGGGCGCCAGATCCAATGTCAAGTGGATTTTGTGCAATGCACAAACAACGTTGCTGGCGATACACGGGAGCGGCTGTGACGCCA

How the values were obtained:
[1] = biological target: T1, H16_B1672 (HTH XRE-family like protein); assay: EMSA; settings: EMSA: labeled DNA in TBE/glycerin-bromophenol blue with herring sperm DNA, 15 min at 30 C, 6% native PAGE at 4 C (protein eluted in 100 mM Tris-HCl pH 8, 150 mM)
[2] = biological target: T2, H16_B0227 (H-NS-like DNA-binding protein) (Ralstonia eutropha H16); assay: EMSA; settings: EMSA: labeled DNA in TBE/glycerin-bromophenol blue with herring sperm DNA, 15 min at 30 C, 6% native PAGE at 4 C (protein eluted in 100 mM Tris-HCl pH 8, 150 mM)
[3] = biological target: T3, H16_B1672 (HTH XRE-family like protein) (Ralstonia eutropha H16); assay: EMSA; settings: EMSA: labeled DNA in TBE/glycerin-bromophenol blue with herring sperm DNA, 15 min at 30 C, 6% native PAGE at 4 C (protein eluted in 100 mM Tris-HCl pH 8, 150 mM)
[4] = biological target: T4, PpiB (peptidyl-prolyl cis-trans isomerase) (Ralstonia eutropha H16?); assay: EMSA; settings: EMSA: labeled DNA in TBE/glycerin-bromophenol blue with herring sperm DNA, 15 min at 30 C, 6% native PAGE at 4 C (protein eluted in 100 mM Tris-HCl pH 8, 150 mM)
[5] = biological target: T1, H16_B1672 (HTH XRE-family like protein); assay: EMSA; EMSA: labeled DNA in TBE/glycerin-bromophenol blue with herring sperm DNA, 15 min at 30 C, 6% native PAGE at 4 C (protein eluted in 100 mM Tris-HCl pH 8, 150 mM NaCl, 1 mM EDTA, 2.5 mM desthiobiotin); pull-down: crude extract, 0.5x TBE, salmon sperm DNA, 1 h at 8 C; settings: protein: recombinant; tags: Strep-tag; chain copies: 2; label: 5'-32P on MG0235; blunt

| Molecule | binding [2] | binding [4] | other results |
| --- | --- | --- | --- |
| PphaZ5 PCR fragment, EMSA |  |  | Kd [1]: 1500 nM |
| ATCGGATCCGGGTGCTGCGCAATGCGGGCTTCAGCGCAGTTGGCGTGCCCGACAGCCGCATGGCCGGCTTCGTGCAAGGTGGGCGGGCGGGCGACAGGCTTCTGCCGCGGGTGCGTAGGTGGGAAGGTGGCGCTGGTGCACTGAGAAGTGCTGCGCGCGGCTCAGGTGCCGTCGATGTCGAATGGACTGGCTGCGGGAGGCTCCGGTCGAATTCGAT (double strand) [PphaZ5 PCR fragment, EMSA] | no binding | no binding | Kd [3]: 1500 nM |
| ATCGAATTCGGACCCGCGTCCGAGGTATCGCAGCGCCTGGCTGACATCATGCTTGAGGCGTTGCGTCCAGTGTGATGGCGGCGGCGGGATGGCTGGTCACGCCCTATCGGATCGGCGGTGAACCATCGAATTCCGGCCGTTCACGTAACAGGATGCGGAAGACCGGTACGGGGTCGCAAGCAAGCGGGCCCCGCCAGCGGCGCGGCGCTTGATGTTTGGCGTTGCAGCAAGGCCTGTCCGACATATAGTGAAATCCTGGC (double strand) [PphaZ3 PCR fragment, EMSA] | no binding | no binding | binding [3]: no binding |
| B1 |  |  | Kd [5]: 175 nM |
